This note sets out measurements from PMC8198134, “Structural Basis for the Diminished Ligand Binding and Catalytic Ability of Human Fetal-Specific CYP3A7” (International Journal of Molecular Sciences, 2021).

Substrate in this data set: O=c1cc(C(F)(F)F)c2ccc(OCc3ccccc3)cc2o1
Put plainly: purified protein. Format: biochemical, Homo sapiens. The following applies: heme.

By Km is commonly meant the substrate concentration at which the rate is half of its maximum. As a reminder, the kcat is the number of substrate molecules converted per active site and unit of time at saturation. The kcat/Km is the turnover number divided by the Michaelis constant.

B1: CYP3A7mut (Homo sapiens; C77G/K244E/K421A/K422A/K424A/R69G) (protein)
chain: YLYGTRTHGLFKKLGIPGPTPLPFLGNALSFRKGYWTFDMECYKKYGKVWGIYDGQQPMLAITDPDMIKTVLVKECYSVFTNRRPFGPVGFMKNAISIAEDEEWKRIRSLLSPTFTSGKLKEMVPIIAQYGDVLVRNLRREAETGKPVTLKHVFGAYSMDVITSTSFGVSIDSLNNPQDPFVENTKKLLRFNPLDPFVLSIKVFPFLTPILEALNITVFPREVISFLTKSVKQIKEGRLKETQKHRVDFLQLMIDSQNSKDSETHKALSDLELMAQSIIFIFAGYETTSSVLSFIIYELATHPDVQQKVQKEIDTVLPNKAPPTYDTVLQLEYLDMVVNETLRLFPVAMRLERVCKKDVEINGMFIPKGVVVMIPSYVLHHDPKYWTEPEKFLPERFSAANADNIDPYIYTPFGSGPRNCIGMRFALVNMKLALVRVLQNFSFKPCKETQIPLKLRFGGLLLTEKPIVLKAESRDETVSGA
notes: Δ3-22 (lacking the membrane tether, residues 3-22), C-terminal 4-histidine tag
For B1, the Michaelis constant (Km) came to 11 ± 1 µM, the kcat amounted to 0.000567 ± 8.33e-05 s⁻¹ and the kcat/Km turned out to be 51.7 M⁻¹ s⁻¹.
